The values below are quoted from earlier work in paper PMC3350600.

pKd: −log10 of the molar value.

The target in this data set is PP1 (Homo sapiens) (UniProt P62136).
Chain of UniProt P62136 (P62136 2-330): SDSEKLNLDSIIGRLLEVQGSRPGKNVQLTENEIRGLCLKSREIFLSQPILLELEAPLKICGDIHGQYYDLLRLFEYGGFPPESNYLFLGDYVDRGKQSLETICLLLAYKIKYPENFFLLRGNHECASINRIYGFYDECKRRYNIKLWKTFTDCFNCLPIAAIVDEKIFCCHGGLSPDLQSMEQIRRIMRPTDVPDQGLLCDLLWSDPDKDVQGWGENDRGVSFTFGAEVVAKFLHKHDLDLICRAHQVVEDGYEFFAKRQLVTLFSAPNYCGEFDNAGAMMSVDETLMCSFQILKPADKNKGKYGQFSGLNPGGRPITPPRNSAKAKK

Take “Spinophilin PP1-binding domain (from UniProt O35274)”: the pKd is 8.10.

As a reminder, the pKd is −log10 of the Kd, conventionally taken in molar units.
